# Patent publication US20240392024A1 (SHANGHAI CELGEN BIO PHARMACEUTICAL, published 2024)
# T1: TNFR2-His (Sino Biological, 10417-H08H, NP_001057.1 Met1-Asp257, with multi-histidine tag expressed on … (human, UniProt P20333 23-257))
# T1 construct: range 1-257; Bought protein; also called recombinant human TNFR2 protein; TNFR2-His antigen; not shown: C-terminal multi-histidine tag
# T1 sequence (looked up): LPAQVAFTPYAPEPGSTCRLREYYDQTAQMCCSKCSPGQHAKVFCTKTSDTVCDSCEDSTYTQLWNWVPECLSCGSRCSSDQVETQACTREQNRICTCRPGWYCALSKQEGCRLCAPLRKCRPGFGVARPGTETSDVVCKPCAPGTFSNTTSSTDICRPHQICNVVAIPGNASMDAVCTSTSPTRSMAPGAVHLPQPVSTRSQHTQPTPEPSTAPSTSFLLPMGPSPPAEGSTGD
# T2: human TNFR2 on the cell membrane (human, UniProt P20333 23-461)
# T2 construct: whole, on cells; One molecule for all cell formats; also called TNFR2-CHO cells; CHO-TNFR2
# T2 sequence (looked up): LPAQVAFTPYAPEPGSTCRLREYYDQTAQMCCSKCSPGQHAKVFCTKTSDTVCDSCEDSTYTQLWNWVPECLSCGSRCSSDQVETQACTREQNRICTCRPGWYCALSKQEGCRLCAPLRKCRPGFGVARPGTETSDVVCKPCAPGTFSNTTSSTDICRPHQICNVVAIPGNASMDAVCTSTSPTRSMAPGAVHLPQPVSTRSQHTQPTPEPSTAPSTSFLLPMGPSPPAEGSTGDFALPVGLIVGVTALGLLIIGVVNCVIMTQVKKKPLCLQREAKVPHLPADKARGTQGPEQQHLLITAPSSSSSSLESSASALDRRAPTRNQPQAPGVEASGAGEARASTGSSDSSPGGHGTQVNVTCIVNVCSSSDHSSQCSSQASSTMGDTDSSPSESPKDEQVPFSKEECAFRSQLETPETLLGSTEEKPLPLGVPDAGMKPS
# T3: WT
# T3 construct: also called T cells of wild-type (WT) mice; mouse TNFR2 on the cell membrane
# T3 chain: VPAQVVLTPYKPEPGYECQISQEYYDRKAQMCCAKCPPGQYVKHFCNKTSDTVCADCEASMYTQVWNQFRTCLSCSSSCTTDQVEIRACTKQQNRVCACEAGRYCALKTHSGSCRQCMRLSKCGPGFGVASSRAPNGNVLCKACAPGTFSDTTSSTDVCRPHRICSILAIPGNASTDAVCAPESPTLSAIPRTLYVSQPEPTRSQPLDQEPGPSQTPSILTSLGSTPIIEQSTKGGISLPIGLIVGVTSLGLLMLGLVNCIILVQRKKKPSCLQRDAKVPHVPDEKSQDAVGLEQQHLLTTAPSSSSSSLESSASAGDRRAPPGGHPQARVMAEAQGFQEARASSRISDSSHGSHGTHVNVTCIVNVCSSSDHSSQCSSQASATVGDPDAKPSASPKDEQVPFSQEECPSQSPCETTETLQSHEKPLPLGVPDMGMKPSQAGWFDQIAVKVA
# Assays:
# [1] = target: T1, TNFR2-His (Sino Biological, 10417-H08H, …); experiment: ELISA, coated TNFR2-His
# Method in brief: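 ELISA on plates coated with recombinant human TNFR2 carrying a C-terminal His tag, then blocked. Serially diluted antibodies were incubated, followed by an enzyme-labelled anti-IgG secondary antibody. Plates were developed with TMB and read on a microplate reader. EC50 is reported from the dilution series.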
# [2] = target: T1, TNFR2-His (Sino Biological, 10417-H08H, …); experiment: ELISA, plate coated with TNFR2-His
# Method: To determine whether the human-mouse chimeric TNFR2 monoclonal antibody of the present invention can bind to recombinant human TNFR2 protein, in vitro ELISA test was conducted. Similar to the method described above, The plate was coated with TNFR2-His (Sino Biological, 10417-H08H, Assessment #NP_001057.1.Met1-Asp257, with multi-histidine tag expressed on C-terminus) antigens, and blocked with BSA, then added with gradient diluted human-mouse chimeric TNFR2 monoclonal antibodies for incubation. Then, secondary antibody Ap-anit-human IgG Fc (JacksonImmuno Research, 109-055-098) was added for incubation After TMB development, ELISA reading was performed.
# [3] = target: T2, human TNFR2 on the cell membrane; experiment: flow cytometry on human PBMC, CD3+ T cells
# Method: Purified anti-human TNFR2 human-mouse chimeric monoclonal antibodies were co-cultured with PBMC cells (Oricells) and stained. The binding of the antibody was analyzed by flow cytometry. The specific steps are as follows: PBMC cells (Oricells) were counted, centrifuged, resuspended, then added to a 96-deep well plate, and the supernatant was discarded. Diluted anti-TNFR2 monoclonal antibodies were added.
# [4] = target: T1, TNFR2-His (Sino Biological, 10417-H08H, …); experiment: BLI, antibody captured on AHC probe, TNFR2 in solution
# Method: The GATOR (ProbeLife) detection instrument and AHC (Pall, 185064), Human antibody Capture probe were used to detect the dissociation constant (Kd) of human-mouse chimeric TNFR2 monoclonal antibody.
# The human-mouse chimeric TNFR2 monoclonal antibodies were diluted to 50 nM in binding buffer (Q buffer [PBS (10 mM PH7.4)+0.02% Tween 20+0.2% BSA). The recombinant human TNFR2 protein was diluted in Q buffer with a 2-fold gradient starting from the highest concentration of 100 nM. The kinetic association assay was conducted by placing the antibody capture sensor in the continuously diluted antigen solutions mentioned above. The Octet Data Acquisition software was pened and the New Kinetics Experiment-Basic Kinetics mode was selected.
# WT = target: T3, WT; experiment: flow cytometry on ConA-stimulated spleen cells of WT mice, mCD3+ T cells
# Method: (§1) The cells were stained again with Cy-3 anti-human IgG and FITC anti-mCD3 (BD, 555274) after washing, under the same incubation conditions. After washing, the detection was performed.
# [5] = target: T2, human TNFR2 on the cell membrane; experiment: flow cytometry on ConA-stimulated spleen cells of hTNFR2-KI mice, mCD3+ T cells
# Method: as §1
EC50 [1],EC50 [2],"percent of cells in the upper right quadrant (Q1-UR, CD3+ and anti-human IgG Fc+) [3]",Kd [4],koff [4],kon [4],binding result (WT),"percent of cells in the upper right quadrant (Q2-UR, mCD3+ and anti-hIgG+) (WT)","percent of cells in the upper right quadrant (Q2-UR, mCD3+ and anti-hIgG+) [5]",Binder
0.265 nM,0.0396 µg/mL,45.6%,3.9 nM,0.00304 s⁻¹,780000 M⁻¹ s⁻¹,no binding,0.83%,46.2%,"human-mouse chimeric TNFR2 monoclonal antibody 12E12-hFc (antibody, V domains shown, Mouse V regions of clone 12E12 with human constant regions; also called human-mouse chimeric 12E12 antibody) VH: EVQLQQSGAELVKPGASVKLSCTVSGFNIKDFYIHWVKQRPEQGLEWIGRVDPEDGNTEYAPNFQDRATMTTDTSSNTAYLQLSSLTSVDTAVYYCSTWDGFSYFDYWGLGTTLTVSS VL: QAVVTQESALTTSPGETVTLTCRSSTGPVTTNNYANWVQEKPDHLFTGLIGGTNDRAPGVPARFSGSLIGDKTALTITGTQTEDEAVYFCALWYRNHWVFGGGTKLTVL"
0.278 nM,0.0415 µg/mL,42.3%,9.38 nM,0.00761 s⁻¹,811000 M⁻¹ s⁻¹,no binding,1.04%,36%,"human-mouse chimeric TNFR2 monoclonal antibody 27F6-hFc (antibody, V domains shown, Mouse V regions of clone 27F6 with human constant regions) VH: EVQLQQSGTVLARPGASVKMSCKTSGYTFTSYWMHWVKQRPGQGLEWIGTIYPGNSDTSYNQKFKGKAKLTAVTSASTAYMELNSLTNEDSAVFYCTRENLLLRSYFFDYWGQGTTLTVSS VL: DIVMTQSPASLAVSLGQRATISCKASQSVDYDGDSYLNWYQQKPGQPPKLLIYAASNLPSGIPARFSGSGSGTDFTLNIHPVEEEDAATYYCQQSNEDPRTFGGGTKLEIK"
